B1: Keratin-associated protein 3-2 (Homo sapiens), Q9BYR7 (parent)
chain: MDCCASRSCSVPTGPATTICSSDKSCRCGVCLPSTCPHTVWLLEPICCDNCPPPCHIPQPCVPTCFLLNSCQPTPGLETLNLTTFTQPCCEPCLPRGC
B2: X antigen family member 3 (Homo sapiens), Q8WTP9 (parent)
chain: MIWRGRSTYRPRPRRSVPPPELIGPMLEPGDEEPQQEEPPTESRDPAPGQEREEDQGAAETQVPDLEADLQELSQSKTGGECGNGPDDQGKILPKSEQFKMPEGGDRQPQV
partner: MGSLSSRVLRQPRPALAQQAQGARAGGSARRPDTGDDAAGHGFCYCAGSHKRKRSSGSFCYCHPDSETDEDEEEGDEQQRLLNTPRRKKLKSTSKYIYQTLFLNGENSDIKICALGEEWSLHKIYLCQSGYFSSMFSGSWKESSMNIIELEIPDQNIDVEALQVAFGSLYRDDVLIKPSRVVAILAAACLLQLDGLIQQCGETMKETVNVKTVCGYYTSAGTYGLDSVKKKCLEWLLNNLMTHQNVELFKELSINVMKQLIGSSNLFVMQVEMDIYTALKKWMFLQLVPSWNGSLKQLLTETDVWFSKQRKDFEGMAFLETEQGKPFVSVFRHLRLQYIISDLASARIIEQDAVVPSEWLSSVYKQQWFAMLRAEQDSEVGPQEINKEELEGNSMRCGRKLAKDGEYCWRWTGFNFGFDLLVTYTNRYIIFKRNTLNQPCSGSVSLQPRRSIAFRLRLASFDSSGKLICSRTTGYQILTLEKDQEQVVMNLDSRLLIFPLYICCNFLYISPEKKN
B3: Phosphoserine phosphatase (Homo sapiens), P78330 (parent)
chain: MVSHSELRKLFYSADAVCFDVDSTVIREEGIDELAKICGVEDAVSEMTRRAMGGAVPFKAALTERLALIQPSREQVQRLIAEQPPHLTPGIRELVSRLQERNVQVFLISGGFRSIVEHVASKLNIPATNVFANRLKFYFNGEYAGFDETQPTAESGGKGKVIKLLKEKFHFKKIIMIGDGATDMEACPPADAFIGFGGNVIRQQVKDNAKWYITDFVELLGELEE
partner: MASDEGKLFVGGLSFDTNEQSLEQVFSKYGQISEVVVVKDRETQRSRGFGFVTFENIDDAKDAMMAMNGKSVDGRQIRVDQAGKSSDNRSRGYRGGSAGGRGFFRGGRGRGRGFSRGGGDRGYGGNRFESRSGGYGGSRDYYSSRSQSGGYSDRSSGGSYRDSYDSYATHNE
B4: Notch homolog 2 N-terminal-like protein A (Homo sapiens), Q7Z3S9 (parent)
chain: MCVTYHNGTGYCKCPEGFLGEYCQHRDPCEKNRCQNGGTCVAQAMLGKATCRCASGFTGEDCQYSTSHPCFVSRPCLNGGTCHMLSRDTYECTCQVGFTGKECQWTDACLSHPCANGSTCTTVANQFSCKCLTGFTGQKCETDVNECDIPGHCQHGGTCLNLPGSYQCQCLQGFTGQYCDSLYVPCAPSPCVNGGTCRQTGDFTFECNCLPETVRRGTELWERDREVWNGKEHDEN
partner: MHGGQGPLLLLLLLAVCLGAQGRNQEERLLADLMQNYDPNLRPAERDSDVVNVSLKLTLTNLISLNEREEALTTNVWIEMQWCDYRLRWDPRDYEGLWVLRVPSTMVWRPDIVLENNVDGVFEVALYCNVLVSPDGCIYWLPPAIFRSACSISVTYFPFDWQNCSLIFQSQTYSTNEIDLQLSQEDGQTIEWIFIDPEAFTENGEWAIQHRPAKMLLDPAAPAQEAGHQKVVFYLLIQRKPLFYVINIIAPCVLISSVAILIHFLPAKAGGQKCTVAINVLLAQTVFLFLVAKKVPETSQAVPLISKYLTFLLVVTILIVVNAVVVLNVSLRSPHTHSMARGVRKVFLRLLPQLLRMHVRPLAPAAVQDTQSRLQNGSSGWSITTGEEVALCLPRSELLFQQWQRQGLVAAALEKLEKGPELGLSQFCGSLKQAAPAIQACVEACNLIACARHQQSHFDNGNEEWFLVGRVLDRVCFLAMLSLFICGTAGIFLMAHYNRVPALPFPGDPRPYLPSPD
B5: Ribonuclease P protein subunit p30 (Homo sapiens), P78346 (parent)
chain: MAVFADLDLRAGSDLKALRGLVETAAHLGYSVVAINHIVDFKEKKQEIEKPVAVSELFTTLPIVQGKSRPIKILTRLTIIVSDPSHCNVLRATSSRARLYDVVAVFPKTEKLFHIACTHLDVDLVCITVTEKLPFYFKRPPINVAIDRGLAFELVYSPAIKDSTMRRYTISSALNLMQICKGKNVIISSAAERPLEIRGPYDVANLGLLFGLSESDAKAAVSTNCRAALLHGETRKTAFGIISTVKKPRPSEGDEDCLPASKKAKCEG
B6: Isoform 1 of Acetyl-CoA acetyltransferase, cytosolic (Homo sapiens), Q9BWD1-1 (parent)
chain: MNAGSDPVVIVSAARTIIGSFNGALAAVPVQDLGSTVIKEVLKRATVAPEDVSEVIFGHVLAAGCGQNPVRQASVGAGIPYSVPAWSCQMICGSGLKAVCLAVQSIGIGDSSIVVAGGMENMSKAPHLAYLRTGVKIGEMPLTDSILCDGLTDAFHNCHMGITAENVAKKWQVSREDQDKVAVLSQNRTENAQKAGHFDKEIVPVLVSTRKGLIEVKTDEFPRHGSNIEAMSKLKPYFLTDGTGTVTPANASGINDGAAAVVLMKKSEADKRGLTPLARIVSWSQVGVEPSIMGIGPIPAIKQAVTKAGWSLEDVDIFEINEAFAAVSAAIVKELGLNPEKVNIEGGAIALGHPLGASGCRILVTLLHTLERMGRSRGVAALCIGGGMGIAMCVQRE
B7: STAM-binding protein (Homo sapiens), O95630 (parent)
chain: MSDHGDVSLPPEDRVRALSQLGSAVEVNEDIPPRRYFRSGVEIIRMASIYSEEGNIEHAFILYNKYITLFIEKLPKHRDYKSAVIPEKKDTVKKLKEIAFPKAEELKAELLKRYTKEYTEYNEEKKKEAEELARNMAIQQELEKEKQRVAQQKQQQLEQEQFHAFEEMIRNQELEKERLKIVQEFGKVDPGLGGPLVPDLEKPSLDVFPTLTVSSIQPSDCHTTVRPAKPPVVDRSLKPGALSNSESIPTIDGLRHVVVPGRLCPQFLQLASANTARGVETCGILCGKLMRNEFTITHVLIPKQSAGSDYCNTENEEELFLIQDQQGLITLGWIHTHPTQTAFLSSVDLHTHCSYQMMLPESVAIVCSPKFQETGFFKLTDHGLEEISSCRQKGFHPHSKDPPLFCSCSHVTVVDRAVTITDLR
partner: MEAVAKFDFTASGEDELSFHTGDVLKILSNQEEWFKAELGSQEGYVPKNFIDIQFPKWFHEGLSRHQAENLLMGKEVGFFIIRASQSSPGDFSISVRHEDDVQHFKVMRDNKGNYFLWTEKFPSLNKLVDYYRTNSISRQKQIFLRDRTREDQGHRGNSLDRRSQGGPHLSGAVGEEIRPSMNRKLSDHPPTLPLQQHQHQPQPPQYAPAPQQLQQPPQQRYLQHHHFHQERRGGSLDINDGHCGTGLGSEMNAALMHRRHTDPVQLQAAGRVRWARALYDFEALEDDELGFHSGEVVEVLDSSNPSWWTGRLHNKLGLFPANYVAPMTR

Variants of: B1
Details: with yipf3_human YIPF3, Q9GZM5
Sequence of yipf3_human YIPF3, Q9GZM5 (Q9GZM5 whole entry): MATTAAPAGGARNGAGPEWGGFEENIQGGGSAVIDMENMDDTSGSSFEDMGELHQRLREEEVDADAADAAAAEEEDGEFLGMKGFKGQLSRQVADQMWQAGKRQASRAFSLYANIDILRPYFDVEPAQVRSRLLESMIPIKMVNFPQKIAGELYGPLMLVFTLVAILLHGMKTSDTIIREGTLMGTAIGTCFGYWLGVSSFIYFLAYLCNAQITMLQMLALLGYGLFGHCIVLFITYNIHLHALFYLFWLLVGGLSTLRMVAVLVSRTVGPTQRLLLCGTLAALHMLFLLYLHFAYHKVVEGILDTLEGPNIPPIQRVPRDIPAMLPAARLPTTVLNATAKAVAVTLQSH

| effect of a mutation on the interaction | Variant |
| --- | --- |
| with no effect | S8G |

Variants of: B1
Details: with hxa1_human HOXA1, P49639
Sequence of hxa1_human HOXA1, P49639 (P49639 whole entry): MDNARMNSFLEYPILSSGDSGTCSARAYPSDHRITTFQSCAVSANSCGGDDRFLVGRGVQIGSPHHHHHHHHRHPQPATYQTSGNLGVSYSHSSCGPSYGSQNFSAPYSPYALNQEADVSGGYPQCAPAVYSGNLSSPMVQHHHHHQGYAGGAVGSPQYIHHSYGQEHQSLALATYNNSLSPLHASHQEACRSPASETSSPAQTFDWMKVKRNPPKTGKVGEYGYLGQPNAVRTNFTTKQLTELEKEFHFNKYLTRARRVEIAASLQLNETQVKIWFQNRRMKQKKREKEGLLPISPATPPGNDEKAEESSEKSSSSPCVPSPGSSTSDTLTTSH

| effect of a mutation on the interaction | Variant |
| --- | --- |
| with no effect | S8G |

Variants of: B1
Details: with otx1_human OTX1, P32242
Sequence of otx1_human OTX1, P32242 (P32242 whole entry): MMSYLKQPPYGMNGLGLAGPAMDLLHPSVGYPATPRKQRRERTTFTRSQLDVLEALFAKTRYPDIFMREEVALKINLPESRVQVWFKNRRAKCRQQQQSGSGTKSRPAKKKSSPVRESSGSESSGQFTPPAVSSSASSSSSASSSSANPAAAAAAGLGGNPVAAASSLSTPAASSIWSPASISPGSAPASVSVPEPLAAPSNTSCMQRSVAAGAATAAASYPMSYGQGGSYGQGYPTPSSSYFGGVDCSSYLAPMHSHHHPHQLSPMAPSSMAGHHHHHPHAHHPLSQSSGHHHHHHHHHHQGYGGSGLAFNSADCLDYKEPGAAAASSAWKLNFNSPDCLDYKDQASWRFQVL

| effect of a mutation on the interaction | Variant |
| --- | --- |
| with no effect | S8G |

Variants of: B2
Details: with gmcl1_human GMCL1, Q96IK5

| effect of a mutation on the interaction | Variant |
| --- | --- |
| with no effect | I92F |

Variants of: B3
Details: with cirbp_human CIRBP

| effect of a mutation on the interaction | Variant |
| --- | --- |
| with no effect | T149M |
| with no effect | T152I |

Variants of: B4
Details: with achg_human CHRNG

| effect of a mutation on the interaction | Variant |
| --- | --- |
| with no effect | A115T |
| with no effect | R74Q |

Variants of: B5
Details: with hm20a_human HMG20A

| effect of a mutation on the interaction | Variant |
| --- | --- |
| with no effect | G12D |

Variants of: B6
Details: with lnx1_human LNX1, Q8TBB1
Sequence of lnx1_human LNX1, Q8TBB1 (Q8TBB1 whole entry): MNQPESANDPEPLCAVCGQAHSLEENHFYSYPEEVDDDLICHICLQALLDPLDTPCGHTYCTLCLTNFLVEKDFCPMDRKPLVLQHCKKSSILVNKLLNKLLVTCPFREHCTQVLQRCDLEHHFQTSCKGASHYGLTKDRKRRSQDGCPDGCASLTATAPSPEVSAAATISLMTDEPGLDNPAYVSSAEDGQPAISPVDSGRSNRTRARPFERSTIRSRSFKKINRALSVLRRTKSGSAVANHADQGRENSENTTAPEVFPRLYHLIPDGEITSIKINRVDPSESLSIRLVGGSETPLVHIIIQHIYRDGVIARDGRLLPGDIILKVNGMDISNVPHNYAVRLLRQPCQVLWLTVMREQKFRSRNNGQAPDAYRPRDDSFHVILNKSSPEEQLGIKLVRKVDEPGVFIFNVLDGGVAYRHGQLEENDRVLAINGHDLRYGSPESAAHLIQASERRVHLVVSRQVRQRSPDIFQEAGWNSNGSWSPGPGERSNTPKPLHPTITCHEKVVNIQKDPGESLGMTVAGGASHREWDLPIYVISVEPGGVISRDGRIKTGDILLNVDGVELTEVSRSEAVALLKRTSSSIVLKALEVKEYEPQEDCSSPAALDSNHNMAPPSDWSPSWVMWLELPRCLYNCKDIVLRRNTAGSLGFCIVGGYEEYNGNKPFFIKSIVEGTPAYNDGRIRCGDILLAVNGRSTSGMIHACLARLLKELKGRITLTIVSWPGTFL

| effect of a mutation on the interaction | Variant |
| --- | --- |
| with no effect | G161S |

Variants of: B7
Details: with grap2_human GRAP2, O75791

| effect of a mutation on the interaction | Variant |
| --- | --- |
| with no effect | R255H |
| disrupting interaction strength | Q155H |

Source: IntAct's records for PubMed 31515488
